The source of these data is US20150309057A1, “Giant Liposome Array for High-throughput Lipid-Interaction Screening” (EUROPEAN MOLECULAR BIOLOGY LABORATORY (EMBL), priority 2012, published 2015).

The nature of experiment [1]: Liposome array cooperative membrane recruitment (NBI). As to conditions: GFP-tagged fusion, cooperative binding. The source says:
FIG. 13: High-throughput image processing and calculation of normalized binding intensity. (a) Image processing pipeline. Multiple images are acquired, one exposure time for Atto647 and multiple exposure times for GFP to capture broad range of binding intensities, from strong (short exp. times) to weak (longer exp. times). All images are then processed with CellProfiler software. After removal of background, the Atto647 image is used for segmentation to obtain a mask representing position of liposome membranes. In parallel the combination of overexposed pixels from both channels (Atto647 and GFP) is removed from every pair of Atto647 and GFP image. Subsequently, a mask is applied to all filtered (i.e. without overexposed pixels) images. Number of pixels matching with the mask and their mean fluorescence intensity is extracted from all images (i.e. both channels and every exposure time). Normalized binding intensity (NBI) is then calculated as a ratio of mean fluorescence intensity from GFP channel and mean fluorescence intensity from Atto647 channel for every pair of images. (b) Image segmentation and liposome counting. […] CellProfiler software is used to segment the image to retrieve a mask representing liposome membranes, and also to search for centers of liposomes that are then used for estimating a number of liposomes analyzed per image. […]

Experiment [2] in a line: Liposome array lipid-binding profile, normalized binding intensity (NBI). As to conditions: GFP-tagged fusion, cell lysate, 20 min incubation. The text has this:
(§1) FIG. 13: High-throughput image processing and calculation of normalized binding intensity. (a) Image processing pipeline. Multiple images are acquired, one exposure time for Atto647 and multiple exposure times for GFP to capture broad range of binding intensities, from strong (short exp. times) to weak (longer exp. times). All images are then processed with CellProfiler software. After removal of background, the Atto647 image is used for segmentation to obtain a mask representing position of liposome membranes. In parallel the combination of overexposed pixels from both channels (Atto647 and GFP) is removed from every pair of Atto647 and GFP image. Subsequently, a mask is applied to all filtered (i.e. without overexposed pixels) images. Number of pixels matching with the mask and their mean fluorescence intensity is extracted from all images (i.e. both channels and every exposure time). Normalized binding intensity (NBI) is then calculated as a ratio of mean fluorescence intensity from GFP channel and mean fluorescence intensity from Atto647 channel for every pair of images. […] CellProfiler software is used to segment the image to retrieve a mask representing liposome membranes, and also to search for centers of liposomes that are then used for estimating a number of liposomes analyzed per image. […] Fluorescence signal was analysed via a high-throughput image analysis pipeline (FIG. 13). […]

Test in experiment [3]: as above
As to conditions: GFP-tagged fusion, cell lysate, 20 min incubation.
Description: as §1
This is another data set of the same source.

Experiment [4] is described as follows: Akt PH domain binding to liposome array, wide-field fluorescence microscopy. As to conditions: E. coli lysate with fluorescently labelled domain, 30 minutes incubation, PBS wash. The source says:
(§2) The Akt Pleckstrin Homology (PH) domain (positions 6 to 110) is known to specifically bind to PI-(3,4)-P2 and PI-(3,4,5)-P3 and is thus, used as a model system to evaluate the specificity and sensitivity of assays performed using the liposome array. The fluorescently labelled Akt PH domain is expressed in Escherichia coli, cells are lysed by sonication and after a centrifugation at 10000 g, supernantant is recovered and injected in the microchip. Several liposome arrays each comprising liposomes formed from different lipids are produced. Liposomes either comprised POPC only, or a […] mol:mol mixture of POPC:DOPS, POPC:PI3P, POPC:PI4P, POPC:PI(3,4)P2, POPC:PI(3,5)P2, POPC:PI(4,5)P2, POPC:PI(3,4,5)P3 (all of which are purchased from Avanti polar lipids) as shown in FIG. 11(a) to (h), respectively.
(§3) E. coli lysate comprising the fluorescently labelled Akt PH domain is applied to the liposome array and incubated 30 minutes and washed with PBS buffer before imaging.

Test in experiment [5]: as above
As to conditions: E. coli lysate with fluorescently labelled domain, 30 minutes incubation, PBS wash.
Description: as §2, §3
The source holds these as a separate data set.

The nature of experiment [6]: Liposome array lipid-binding profile, normalized binding intensity (NBI). As to conditions: GFP-tagged fusion, cell lysate, 20 min incubation.
Description: as §1
The source holds these as a separate data set.

As to “Pkcγ: protein kinase C-γ, GFP-tagged fusion”, in experiment [1], the membrane recruitment entry is reported as “calcium-dependent recruitment”.

B1: Hsv2: Hsv2 protein (PROPPIN domain), GFP-tagged fusion (protein, UniProt P50079 1-448, looked up)
SVP1-like protein 2: MDVRRPIREAVNNRRKPKFLSVSFNQDDSCFSVALENGFRIFNTDPLTSKLSKTFKESATNQSRGTGIGYTRMLYRTNYIALVGGGKRPRHALNKLIIWDDLLQKETITLKFMSSIKDVFLSRIHIVVVLENTIEIFQFQTNPQRICPILDIPPNGSVDYVVCSSKHLQSQASQSQSKILEIIAFPSNKCVGQIQVADLSQIKYNSQNPKESALLPTSIIKAHKNPIKLVRLNRQGTMVATCSVQGTLIRIFSTHNGTLIKEFRRGVDKADIYEMSFSPNGSKLAVLSNKQTLHIFQIFETTNTETNTPDHSRANGSSHPLKNYIPKGLWRPKYLDSVWSICNAHLKNPIFDAHRNDNSGDVTHDNEFYKDRCRIGWCQDSNNREQDDSLVLVWQNSGIWEKFVILEKEQQDSSKTHYSLNESLRNEDTKSAGEPTRWELVRESWREL
modifications: GFP tag
notes: Hsv2 protein (PROPPIN domain), GFP-tagged fusion
Turning to B1, the “interaction confirmed by NBI profile” value in experiment [2] and in experiment [3] was “interactions” in each case.

B2: Akt PH domain: Akt Pleckstrin Homology (PH) domain (positions 6 to 110), fluorescently labelled, expressed in Escherichia coli (protein, UniProt P31749 6-110, looked up, fragment)
chain: IVKEGWLHKRGEYIKTWRPRYFLLKNDGTFIGYKERPQDVDQREAPLNNFSVAQCQLMKTERPRPNTFIIRCLQWTTVIERTFHVETPEEREEWTTAIQTVADGL
modifications: PH domain fluorescent label
notes: Akt Pleckstrin Homology (PH) domain (positions 6 to 110), fluorescently labelled, expressed in Escherichia coli
In the case of B2, the “interaction confirmed by NBI profile” value in experiment [3] and in experiment [6] was “interactions” in each case. Besides, the binding to liposomes entry in experiment [4] and in experiment [5] was “binds” in each case.
